We go through one molecule from patent US12497461B2, “Human NTCP-binding antibody capable of inhibiting infection of hepatitis B virus (HBV) to human hepatocytes” (priority 2019, dated 2025).

For series [1], the target named is T1, epitope region-containing peptide fragment (AFPPEVIGPLFFFPLLYMIFQLGEG-biotin) (Homo sapiens, UniProt Q14973).
T1 sequence (Q14973 273-297 limits assumed): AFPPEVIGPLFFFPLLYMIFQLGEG
The series can be described thus: Surface plasmon resonance assay (BIAcore) of antigen binding affinity. How it is done: In short, a carboxymethylated dextran biosensor chip (CM5, BIAcore Inc.) was activated by N-ethyl-N′-(3-dimethylaminopropyl)-carbodiimide hydrochloride (EDC) and N-hydroxysuccinimide (NHS) in accordance with the provider's instruction. An anti-mouse IgG antibody was diluted with 10 mM sodium acetate (pH5.2) up to 30 μg/ml. The dilution was injected at a flow rate of 5 to 10 μl/minute such that the reaction unit (RU) of the protein bound became 9,000 to 14,000 RU. In contrast, an anti-human IgG antibody was diluted with 10 mM sodium acetate (pH5.0) up to 25 μg/ml. The diluted antibody was injected at a flow rate of 5 to 10 μl/minute such that the reaction unit (RU) of the protein bound became 9,000 to 14,000 RU. After injection of each of the anti IgG antibodies, 1 M ethanolamine was injected in order to block unreactive groups. For kinetic measurement, N6HB426 antibody diluted with a running buffer (HBS-P: 10 mM HEPES pH7.5, 150 mM NaCl, 0.005% NP40) up to 10 μg/ml was immobilized onto CM5 chip via the anti-mouse IgG antibody, in advance. To the chip, a solution of an epitope region-containing peptide fragment ([…]-biotin: SEQ ID NO: 24) diluted with the running buffers at different concentrations was added at 25° C. at a flow rate of 10 μl/minute for 2 minutes. In contrast, the recombinant N6HB426 human chimeric IgG4 antibody was diluted with the running buffer up to 10 μg/ml and then was immobilized onto a sensor chip (CM5) via the anti-human IgG antibody in advance. To the chip, a solution of an epitope region-containing peptide fragment diluted with the running buffers at different concentrations was added at 25° C. at a flow rate of 10 μl/minute for 2 minutes.
The refractive index of the solution varied in correlation to the mass of a chip surface changed when a peptide fragment molecule bound to N6HB426 antibody on the sensor chip, was monitored in real-time. Using simple one-to-one Langmuir binding model (BIAcore Evaluation software version 3.1) by fitting sensor grams of antigen-antibody association and dissociation at the same time, association rate (Ka) and dissociation rate (Kd) were calculated. A Kd/Ka ratio was calculated to obtain an equilibrium dissociation constant (KD).
For orientation: In SPR one partner is held on a chip, and binding of the other changes the refractive index at the surface.

Series [2] deals with HBV (Genotype C or Genotype D). The series can be described thus: Live HBV infection of normal human hepatocytes (PXB cells), HBs antigen. To be noted: FIG. 2B, listed as N6HB426-20 antibody gene-derived recombinant antibody.
The mark [3] stands for this setting: 25° C., antibody immobilized on CM5 chip.

B1: Recombinant mouse IgG2a antibody: N6HB426 variable regions connected to a constant region of mouse IgG2a antibody (antibody)
heavy: QVQLQQSGAELVKPGASVKLSCKASDFTFTEYTIHWIKQMSGQGLEWIGWFYPGSGDIKYSEKFKDKATLTADKSSSTVYMELNRLTSEDSAVYFCARHMRDFRGFYYGRFYFDYWGQGTTLTVSSAKTTAPSVYPLAPVCGGTTGSSVTLGCLVKGYFPEPVTLTWNSGSLSSGVHTFPALLQSGLYTLSSSVTVTSNTWPSQTITCNVAHPASSTKVDKKIEPRGPTIKPCPPCKCPAPNLLGGPSVFIFPPKIKDVLMISLSPIVTCVVVDVSEDDPDVQISWFVNNVEVHTAQTQTHREDYNSTLRVVSALPIQHQDWMSGKEFKCKVNNKDLPAPIERTISKPKGSVRAPQVYVLPPPEEEMTKKQVTLTCMVTDFMPEDIYVEWTNNGKTELNYKNTEPVLDSDGSYFMYSKLRVEKKNWVERNSYSCSVVHEGLHNHHTTKSFSRTPGK
light: EIVLTQSPAIMSASPGEKVTITCRASSSVSSSYLHWYQQKSGVSPKLWIYSTSNLASGVPARFSGSGSGTSYSLTINSVEAEDAATYYCQQYSGYRWTFGGGTTLEIKRADAAPTVSIFPPSSEQLTSGGASVVCFLNNFYPKDINVKWKIDGSERQNGVLNSWTDQDSKDSTYSMSSTLTLTKDEYERHNSYTCEATHKTSTSPIVKSFNRNEC
Usually Kd stands for the constant that tells how readily two partners part at equilibrium. A low value points to higher affinity. In the case of B1, in series [1], the Kd was ~0.1 nM. Also, in series [1] (setting [3]), the “Ka (1/Ms) association rate” value stood at 761.7 M⁻¹ s⁻¹ and the “Kd (1/s) dissociation rate” value is 2.39e-07 s⁻¹. Besides, the “inhibitory activity on infection of normal human hepatocytes with HBV” value in series [2] is “comparable activity”.
